In patent US20240228648A1 (JIANGSU KANION PHARMACEUTICAL, published 2024):
One block for each binder: values may come before it.

Legend:
[1] = molecular target: T1, CD38 on the surface of Daudi cells (human, UniProt P28907 1-300); assay: cell-based or functional assay
[2] = molecular target: T1, CD38 on the surface of Daudi cells; assay: flow cytometry on Daudi cells, anti-human IgG-Alexa647, fit in GraphPad Prism
Description: Daudi cells were washed twice with PBS and incubated for 1 hour on ice with serially diluted antibodies in FACS buffer (PBS containing 2% FBS) as indicated in table 2. Cells were washed three times with PBS and incubated with 1:200 diluted anti-human IgG-Alexa647 in FACS buffer for 30 min at 4° C. in darkness. After three times wash with PBS, cells were analyzed using flowcytometer.

[3] = molecular target: T2, recombinant biotinylated CD38-avi protein (extracellular domain of human CD38) (human, UniProt P28907 43-300, biotinylated (avi tag)); assay: capture ELISA: antibody captured by anti-human Fc, biotinylated CD38-avi 0.5 ug/ml, fit in GraphPad Prism
T2 construct: Bought from ACRO biosystems; also called CD38 recombinant protein; not shown: avi tag
Description: After 6 washes, plate was incubated with 1:1000 diluted streptavidin-HRP (BD Bioscience) in PBS™ at RT for 30 min.

CDC IC50 on Daudi cells (ratio of live P1 cells, 7AAD flow cytometry) [1]: 9.8 nM
maximal ADCC activity on Daudi cells relative to Darzalex (Jurkat effector, luciferase) [1]: 1.4 fold
Kd [2]: 3.1 nM
Kd [3]: 0.082 nM
B1: IgG418 full antibody (antibody, V domains shown)
VH: QVQLQQSGPGLVKPSQTLSLTCAISGGSVSSNSAAWNWIRQSPSRGLEWLGRTYYRSKWYNDYAVSVKSRITINPDTSKNQFSLQLNSVTPEDTAVYYCARDALAAAGTYGYYYYYGMDVWGQGTMVTVSS
VL: QSALTQPASVSGSPGQSITISCTGTSSDVGGYNYVSWYQQHPGKAPKLVIYEGTQRPSGVSSRFSGSKSGNTASLTISGLQAEDEADYYCSSYTSSSFYVFGTGTKLTVLG
notes: also called IgG418 WT; IgG418-WT

ADCC IC50 on Daudi cells relative to Darzalex (Jurkat effector, luciferase) [1]: ~10 fold
maximal ADCC activity on Daudi cells relative to Darzalex (Jurkat effector, luciferase) [1]: 1.6 fold
B2: afucosylated IgG418 (antibody, V domains shown)
VH: B1 VH
VL: B1 VL
modifications: afucosylated glycan (produced in FUT8 knockout CHO-K1 cells)
